Laboratory results as given in the supplement of paper PMC7877785.
± gives the uncertainty stated by the source.

Test: self-splicing fitness, log relative to wild type (ln ratio); higher = more splicing; Tetrahymena group I intron in knt gene, E. coli kanamycin selection, DiMSum; sequences stand for … in CUCUCU…GGAGGGAAAAGUUAUCAGGCAUGCACCUGGUAGCUAGUCUUUAAACCAAUAGAUUGCAUCGGUUUAAAAGGCAAGACCGUCAAAUUGCGGGAAAGGGGUCAACAGCCGUUCAGUACCAAGUCUCAGGGGAAACUUUGAGAUGGCCUUGCAAAGGGUAUGGUAAUAAGCUGACGGACAUGGUCCUAACCACGCAGCCAAGUCCUAAGUCAACAGAUCUUCUGUUGAUAUGGAUGCAGUUCACAGACUAAAUGUCGGUCGGGGAAGAUGUAUUCUUCUCAUAAGAUAUAGUCGGACCUCUCCUUAAUGGGAGCUAGCGGAUGAAGUGAUGCAACACUGGAGCCGCUGGGAACUAAUUUGUAUGCGAAAGUAUAUUGAUUAGUUUUGGAGUACUCGUGGUCG
Summary of the method: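 Fitness was computed with DiMSum as the error-weighted combination of replicate fold changes, kanamycin versus none, each normalised to wild type. The library randomised all eight intron nucleotides of the P1ex region, with the intron placed in the knt kanamycin-resistance gene on pET-22b(+) in E. coli BL21(DE3). Six replicate transformations were grown overnight at 37°C or 30°C on LB agar with or without 25 μg/mL kanamycin, plus 100 μg/mL carbenicillin, 50 μM IPTG and 0.2% rhamnose. Pooled colonies were amplicon-sequenced on an Illumina HiSeq 2500.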

Row | Sequence | self-splicing fitness (ln) (30 °C) | self-splicing fitness (ln) (37 °C)
1 | AUACAGCAAUAUUACGCAGA | -1.49 ± 0.13 | -1.51 ± 0.1
2 | AUACAGCAAUAUUACGCCUG | -1.94 ± 0.12 | 0.29 ± 0.13
3 | AUACAGCAAUAUUACGCGAU | -3.88 ± 0.33 | -1.94 ± 0.21
4 | AUACAGCAAUAUUACGCGCA | -0.623 ± 0.078 | -0.0747 ± 0.11
5 | AUACAGCAAUAUUACGCGCC | -1.06 ± 0.12 | -0.66 ± 0.16
6 | AUACAGCAAUAUUACGCGCU | -0.631 ± 0.094 | 0.0173 ± 0.12
7 | AUACAGCAAUAUUACGCUCG | -0.288 ± 0.12 | -0.205 ± 0.15
8 | AUACAGCAAUAUUACGCUCU | 0.359 ± 0.13 | 0.358 ± 0.16
9 | AUACAGCAAUAUUACGCUGC | -2.38 ± 0.18 | -3.02 ± 0.29
10 | AUACAGCAAUAUUACGGACU | -0.732 ± 0.06 | 0.141 ± 0.09
11 | AUACAGCAAUAUUACGGCAG | -2.21 ± 0.072 | -0.564 ± 0.077
12 | AUACAGCAAUAUUACGGGAG | -3.35 ± 0.15 | -2.12 ± 0.13
13 | AUACAGCAAUAUUACGGGCG | -1.25 ± 0.077 | -1.18 ± 0.11
14 | AUACAGCAAUAUUACGGUUC | -2.89 ± 0.12 | -1.2 ± 0.12
15 | AUACAGCAAUAUUACGUAGG | -2.13 ± 0.11 | -0.536 ± 0.12
16 | AUACAGCAAUAUUACGUCCA | -1.17 ± 0.08 | -0.0617 ± 0.086
17 | AUACAGCAAUAUUACGUGCC | -1.16 ± 0.078 | -0.689 ± 0.11
18 | AUACAGCAAUAUUACGUGUU | -3.98 ± 0.21 | -2.64 ± 0.22
19 | AUACAGCAAUAUUACGUUCA | -0.878 ± 0.07 | -0.304 ± 0.071
20 | AUACAGCAAUAUUACGUUCG | -1.69 ± 0.071 | -1.15 ± 0.093
21 | AUAGAGCAAUAUUACGAAGC | -2.7 ± 0.28 | -0.819 ± 0.35
22 | AUAGAGCAAUAUUACGACGC | -0.187 ± 0.14 | -0.765 ± 0.17
23 | AUAGAGCAAUAUUACGACUU | -0.0326 ± 0.11 | 0.17 ± 0.11
24 | AUAGAGCAAUAUUACGCCCA | -1.09 ± 0.29 | -1.03 ± 0.48
25 | AUAGAGCAAUAUUACGCCUG | -0.827 ± 0.092 | 0.302 ± 0.15
26 | AUAGAGCAAUAUUACGCGCA | -0.749 ± 0.14 | -0.253 ± 0.17

Row | Sequence | self-splicing fitness (ln) (30 °C) | self-splicing fitness (ln) (37 °C)
27 | AUAGAGCAAUAUUACGGACG | -2.69 ± 0.22 | -0.981 ± 0.19
28 | AUAGAGCAAUAUUACGGAGC |  | -2.05 ± 0.38
29 | AUAGAGCAAUAUUACGGCGC | -1.36 ± 0.096 | -0.282 ± 0.14
30 | AUAGAGCAAUAUUACGGCUG | -1.13 ± 0.13 | 0.795 ± 0.2
31 | AUAGAGCAAUAUUACGGGUG | -3.22 ± 0.24 | -2.58 ± 0.26
32 | AUAGAGCAAUAUUACGGUCU | -1.2 ± 0.11 | -0.695 ± 0.15
33 | AUAGAGCAAUAUUACGUUGA | -1.89 ± 0.12 | -1.4 ± 0.12
34 | AUAUAGCAAUAUUACGAAAA | -2.4 ± 0.41 | -1.72 ± 0.34
35 | AUAUAGCAAUAUUACGAACU | -1.38 ± 0.22 | 0.111 ± 0.21
36 | AUAUAGCAAUAUUACGAAUG | -1.77 ± 0.16 | -1.54 ± 0.18
37 | AUAUAGCAAUAUUACGACCA | -1.05 ± 0.32 | 0.391 ± 0.26
38 | AUAUAGCAAUAUUACGACUC | -0.877 ± 0.15 | -0.341 ± 0.2
39 | AUAUAGCAAUAUUACGAUCA | -1.4 ± 0.16 | -0.365 ± 0.22
40 | AUAUAGCAAUAUUACGAUCU | 0.333 ± 0.15 | 0.288 ± 0.13
41 | AUAUAGCAAUAUUACGAUGC | -2.89 ± 0.27 | -0.335 ± 0.22
42 | AUAUAGCAAUAUUACGCAUC | -2.63 ± 0.22 | -1.15 ± 0.26
43 | AUAUAGCAAUAUUACGGCGA | -0.84 ± 0.12 | -0.69 ± 0.13
44 | AUAUAGCAAUAUUACGGCUA | -0.422 ± 0.1 | -0.506 ± 0.12
45 | AUAUAGCAAUAUUACGGGGC | -3.4 ± 0.43 | -2.48 ± 0.32
46 | AUAUAGCAAUAUUACGGUGG | -3.4 ± 0.22 | -2.44 ± 0.25
47 | AUAUAGCAAUAUUACGUACA | -1.07 ± 0.14 | -0.785 ± 0.16
48 | AUAUAGCAAUAUUACGUCAA | -2.93 ± 0.25 | -2.06 ± 0.2
49 | AUAUAGCAAUAUUACGUCAG | -3.76 ± 0.31 | -1.62 ± 0.25
50 | AUAUAGCAAUAUUACGUCCC | -1.01 ± 0.17 | 0.139 ± 0.32
51 | AUAUAGCAAUAUUACGUCUU | -0.0336 ± 0.1 | -0.378 ± 0.1
52 | AUAUAGCAAUAUUACGUGCU | -1.24 ± 0.092 | -0.807 ± 0.13

Row | Sequence | self-splicing fitness (ln) (30 °C) | self-splicing fitness (ln) (37 °C)
53 | AUAUAGCAAUAUUACGUGUC | -4.06 ± 0.34 | -1.88 ± 0.32
54 | AUAUAGCAAUAUUACGUUGG | -4.08 ± 0.42 | -2.04 ± 0.26
55 | AUCAAGCAAUAUUACGAAGC | -3.81 ± 0.43 | 
56 | AUCAAGCAAUAUUACGAAUG | -3.16 ± 0.13 | -0.57 ± 0.1
57 | AUCAAGCAAUAUUACGAGAU | -2.81 ± 0.16 | -2.67 ± 0.21
58 | AUCAAGCAAUAUUACGAGGA | -2.51 ± 0.19 | -2.65 ± 0.26
59 | AUCAAGCAAUAUUACGAGGC | -3.86 ± 0.21 | -2.57 ± 0.2
60 | AUCAAGCAAUAUUACGAUGU | -0.836 ± 0.083 | -0.217 ± 0.091
61 | AUCAAGCAAUAUUACGAUUG | -4.34 ± 0.3 | -3.41 ± 0.3
62 | AUCAAGCAAUAUUACGCACU | -0.00274 ± 0.081 | 0.0749 ± 0.097
63 | AUCAAGCAAUAUUACGCAGA | -2.21 ± 0.18 | -2.52 ± 0.23
64 | AUCAAGCAAUAUUACGCAGU | -2.61 ± 0.14 | -1.71 ± 0.15
65 | AUCAAGCAAUAUUACGCCCA | -0.266 ± 0.15 | 0.0648 ± 0.2
66 | AUCAAGCAAUAUUACGCCCU | 0.228 ± 0.14 | 0.617 ± 0.18
67 | AUCAAGCAAUAUUACGCCGG | -1.22 ± 0.19 | 0.522 ± 0.2
68 | AUCAAGCAAUAUUACGCGAA | -0.924 ± 0.094 | -1.22 ± 0.12
69 | AUCAAGCAAUAUUACGCGCG | -1.01 ± 0.094 | -0.0559 ± 0.13
70 | AUCAAGCAAUAUUACGCGGA | -2.07 ± 0.1 | -1.94 ± 0.088
71 | AUCAAGCAAUAUUACGCGGC | -3.39 ± 0.33 | -1.98 ± 0.29
72 | AUCAAGCAAUAUUACGCUUA | -1.75 ± 0.1 | -0.843 ± 0.1
73 | AUCAAGCAAUAUUACGGACG | -0.832 ± 0.083 | 0.117 ± 0.11
74 | AUCAAGCAAUAUUACGGACU | -0.672 ± 0.076 | 0.456 ± 0.096
75 | AUCAAGCAAUAUUACGGAGU | -2.18 ± 0.095 | -0.783 ± 0.11
76 | AUCAAGCAAUAUUACGGCAG | -1.58 ± 0.085 | -1.55 ± 0.12
